Results taken from patent publication US20170051068A1 (Janssen / Centocor, published 2017).
Substitutions are numbered along the chain they refer to. Names and notes keep the numbering of the source.

B1: BC3B7 (BCMA×CD3 bispecific antibody, BCMB117 × CD3B219) (bispecific antibody, human IgG4 S228P, lambda, F234A L235A)
heavy 1: EVQLVESGGGLVQPGGSLRLSCAASGFTFNTYAMNWVRQAPGKGLEWVARIRSKYNNYATYYAASVKGRFTISRDDSKNSLYLQMNSLKTEDTAVYYCARHGNFGNSYVSWFAYWGQGTLVTVSSASTKGPSVFPLAPCSRSTSESTAALGCLVKDYFPEPVTVSWNSGALTSGVHTFPAVLQSSGLYSLSSVVTVPSSSLGTKTYTCNVDHKPSNTKVDKRVESKYGPPCPPCPAPEAAGGPSVFLFPPKPKDTLMISRTPEVTCVVVDVSQEDPEVQFNWYVDGVEVHNAKTKPREEQFNSTYRVVSVLTVLHQDWLNGKEYKCKVSNKGLPSSIEKTISKAKGQPREPQVYTLPPSQEEMTKNQVSLTCLVKGFYPSDIAVEWESNGQPENNYKTTPPVLDSDGSFLLYSKLTVDKSRWQEGNVFSCSVMHEALHNHYTQKSLSLSLGK
light 1: QTVVTQEPSLTVSPGGTVTLTCRSSTGAVTTSNYANWVQQKPGQAPRGLIGGTNKRAPGTPARFSGSLLGGKAALTLSGVQPEDEAEYYCALWYSNLWVFGGGTKLTVLGQPKAAPSVTLFPPSSEELQANKATLVCLISDFYPGAVTVAWKADSSPVKAGVETTTPSKQSNNKYAASSYLSLTPEQWKSHRSYSCQVTHEGSTVEKTVAPTECS
heavy 2: not shown
light 2: SYVLTQPPSVSVAPGQTARITCGGNNIGSKSVHWYQQPPGQAPVVVVYDDSDRPSGIPERFSGSNSGNTATLTISRVEAGDEAVYYCQVWDSSSDHVVFGGGTKLTVLGQPKAAPSVTLFPPSSEELQANKATLVCLISDFYPGAVTVAWKADSSPVKAGVETTTPSKQSNNKYAASSYLSLTPEQWKSHRSYSCQVTHEGSTVEKTVAPTECS
notes: also called BC3BY; B117 × B219
B2: BC3B10 (BCMA×CD3 bispecific antibody, BCMB129 × CD3B219) (bispecific antibody, human IgG4 S228P, lambda, F234A L235A)
heavy 1: B1 heavy 1
light 1: B1 light 1
heavy 2: not shown
light 2: B1 light 2
notes: IgG4 made by Fab arm exchange; also called B129 × B219
B3: BC3B9 (BCMA×CD3 bispecific antibody, BCMB128 × CD3B219) (bispecific antibody, human IgG4 S228P, lambda, F234A L235A)
heavy 1: B1 heavy 1
light 1: B1 light 1
heavy 2: not shown
light 2: B1 light 2
notes: IgG4 made by Fab arm exchange; also called B128 × B219
B4: BC3B8 (BCMA×CD3 bispecific antibody, BCMB123 × CD3B219) (bispecific antibody, human IgG4 S228P, lambda, F234A L235A)
heavy 1: B1 heavy 1
light 1: B1 light 1
heavy 2: not shown
light 2: B1 light 2
notes: IgG4 made by Fab arm exchange; also called B123 × B219
B5: BC3B11 (BCMA×CD3 bispecific antibody, BCMB176 × CD3B219) (bispecific antibody, human IgG4 S228P, lambda, F234A L235A)
heavy 1: B1 heavy 1
light 1: B1 light 1
heavy 2: not shown
light 2: B1 light 2
notes: IgG4 made by Fab arm exchange; also called B176 × B219
B6: BC3B12 (BCMA×CD3 bispecific antibody, BCMB177 × CD3B219) (bispecific antibody, human IgG4 S228P, lambda, F234A L235A)
heavy 1: B1 heavy 1
light 1: B1 light 1
heavy 2: not shown
light 2: B1 light 2
notes: IgG4 made by Fab arm exchange; also called B177 × B219
B7: BCMB123 (antibody, human IgG4 S228P, lambda, F234A L235A, V domains shown)
VH: QLQLQESGPGLVKPSETLSLTCTVSGGSISSSSYFWGWIRQPPGKGLEWIGSIYYSGITYYNPSLKSRVTISVDTSKNQFSLKLSSVTAADTAVYYCARHDGAVAGLFDYWGQGTLVTVSS
VL: SYVLTQPPSVSVAPGQTARITCGGNNIGSKSVHWYQQPPGQAPVVVVYDDSDRPSGIPERFSGSNSGNTATLTISRVEAGDEAVYYCQVWDSSSDHVVFGGGTKLTVLG
notes: IgG4 S228P, L234A, L235A; also called BCBM123
B8: BCMB177 (antibody, human IgG4 S228P, lambda, F234A L235A, V domains shown)
VH: B7 VH with I58R, V104T
VL: B7 VL
notes: IgG4 S228P, L234A, L235A; also called BCBM177

target: T1, Fc-fusion cyno BCMA (in-house; Cat# BCMW6.001) (cyno, UniProt Q02223 1-54 (human entry)); test: SPR, Fc-BCMA, two-state model, step 2
T1 construct: also called Fc-BCMA Cy; cyno Fc-BCMA; not shown: Fc part

Binder | koff2 | kon2
B1 | 0.000415 s⁻¹ | 0.0015 s⁻¹
B2 | 0.000359 s⁻¹ | 0.00165 s⁻¹
B3 | 0.000376 s⁻¹ | 0.0016 s⁻¹
B4 | 0.000326 s⁻¹ | 0.00194 s⁻¹
B5 | 0.000395 s⁻¹ | 0.00147 s⁻¹
B6 | 0.000337 s⁻¹ | 0.00146 s⁻¹

target: T2, Recombinant human BCMA-Fc fusion protein (R&D Systems catalog #193-BC-050) (human, UniProt Q02223 1-54); test: SPR, Fc-BCMA, two-state model, step 2
T2 construct: also called hBCMA-Fc; Fc-BCMA Hu; not shown: Fc part of the bought fusion protein
T2 sequence: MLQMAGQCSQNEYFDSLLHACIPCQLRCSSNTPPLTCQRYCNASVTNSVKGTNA

Binder | koff2 | kon2
B2 | 0.000531 s⁻¹ | 0.00453 s⁻¹
B3 | 0.000364 s⁻¹ | 0.00506 s⁻¹
B4 | 0.000594 s⁻¹ | 0.00313 s⁻¹
B5 | 0.000689 s⁻¹ | 0.00252 s⁻¹
B6 | 0.000557 s⁻¹ | 0.00129 s⁻¹

target: T3, monomeric human BCMA (human, UniProt Q02223 1-54, limits assumed); test: SPR
T3 construct: also called monomeric BCMA antigen
T3 sequence: T2 sequence

Binder | fold weaker affinity than BCMB69
B7 | 3 to 15 fold
B8 | 3 to 15 fold

target: T1, Fc-fusion cyno BCMA (in-house; Cat# …); test: SPR, Fc-BCMA, two-state model, step 1 (kon1); first step (kon1)

Binder | kon
B1 | 1.38e+06 M⁻¹ s⁻¹
B2 | 930000 M⁻¹ s⁻¹
B3 | 2.18e+06 M⁻¹ s⁻¹
B4 | 1.09e+06 M⁻¹ s⁻¹
B5 | 1.93e+06 M⁻¹ s⁻¹
B6 | 1.48e+06 M⁻¹ s⁻¹

target: T2, Recombinant human BCMA-Fc fusion …; test: as above

Binder | kon
B2 | 1.02e+06 M⁻¹ s⁻¹
B3 | 2.58e+06 M⁻¹ s⁻¹
B4 | 1.35e+06 M⁻¹ s⁻¹
B5 | 2.26e+06 M⁻¹ s⁻¹
B6 | 1.78e+06 M⁻¹ s⁻¹

target: T1, Fc-fusion cyno BCMA (in-house; Cat# …); test: SPR, Fc-BCMA, two-state model, step 1 (koff1); first step (koff1)

Binder | koff
B1 | 0.00417 s⁻¹
B2 | 0.00636 s⁻¹
B3 | 0.00423 s⁻¹
B4 | 0.00734 s⁻¹
B5 | 0.00683 s⁻¹
B6 | 0.00831 s⁻¹

target: T2, Recombinant human BCMA-Fc fusion …; test: as above

Binder | koff
B2 | 0.00155 s⁻¹
B3 | 0.00205 s⁻¹
B4 | 0.00123 s⁻¹
B5 | 0.00132 s⁻¹
B6 | 0.00129 s⁻¹

target: T1, Fc-fusion cyno BCMA (in-house; Cat# …); test: SPR, cyno Fc-BCMA

Binder | fold tighter affinity than BCMB72
B1 | 2 fold
B3 | 3 fold

target: T1, Fc-fusion cyno BCMA (in-house; Cat# …); test: SPR, Fc-BCMA, two-state model, Final KD; Final complex KD, two-state model

Binder | Kd
B1 | 0.65 nM
B2 | 1.22 nM
B3 | 0.37 nM
B4 | 0.97 nM
B5 | 0.75 nM
B6 | 1.06 nM

target: T2, Recombinant human BCMA-Fc fusion …; test: as above

Binder | Kd
B2 | 0.16 nM
B3 | 0.05 nM
B4 | 0.14 nM
B5 | 0.12 nM
B6 | 0.22 nM

target: T2, Recombinant human BCMA-Fc fusion …; test: SPR, human Fc-BCMA

Binder | fold weaker affinity than BCMB72
B5 | 2 to 3 fold
B6 | 2 to 3 fold

target: T1, Fc-fusion cyno BCMA (in-house; Cat# …); test: SPR, Fc-BCMA, two-state model, first complex

Binder | KD1
B1 | 3.04 nM
B2 | 6.84 nM
B3 | 1.94 nM
B4 | 6.77 nM
B5 | 3.56 nM
B6 | 5.65 nM

target: T2, Recombinant human BCMA-Fc fusion …; test: SPR, Fc-BCMA, two-state model, first complex

Binder | KD1
B2 | 1.5 nM
B3 | 0.79 nM
B4 | 0.91 nM
B5 | 0.58 nM
B6 | 0.72 nM

target: T3, monomeric human BCMA; test: SPR, monomeric human BCMA

Binder | Kd | koff | kon
B7 | 5.12 nM | 0.011 s⁻¹ | 2.14e+06 M⁻¹ s⁻¹
B8 | 20.2 nM | 0.0566 s⁻¹ | 2.8e+06 M⁻¹ s⁻¹
